In ChEMBL document CHEMBL2074331, “Kinetics of P-glycoprotein-mediated efflux of paclitaxel” (J Pharmacol Exp Ther, 2001):

Tested on: CC(=O)O[C@H]1C(=O)[C@@]2(C)[C@H]([C@H](OC(=O)c3ccccc3)[C@]3(O)C[C@H](OC(=O)[C@H](O)[C@@H](NC(=O)c4ccccc4)c4ccccc4)C(C)=C1C3(C)C)[C@]1(OC(C)=O)CO[C@@H]1C[C@@H]2O
Test: TP_TRANSPORTER: uptake in MDR1-expressing MCF7 cells
Type: functional, cell-based

ATP-dependent translocase ABCB1 (Homo sapiens)
Km: 0.014 µM
